# Experimental data from patent US20080081035.
# B1: Aspergillus oryzae alkaline protease (protein)
# chain: GLTTQKSAPWGLGSISHKGQQSTDYIYDTSAGEGTYAYVVDSGVNVDHEEFEGRASKAYNAAGGQHVDSIGHGTHVSGTIAGKTYGIAKKASILSVKVFQGESSSTSVILDGFNWAANDIVSKKRTSKAAINMSLGGGYSKAFNDAVENAFEQGVLSVVAAGNENSDAGQTSPASAPDAITVAAIQKSNNRASFSNFGKVVDVFAPGQDILSAWIGSSSATNTISGTSMATPHIVGLSLYLAALENLDGPAAVTKRIKELATKDWKDVKGSPNLLAYNGNA
# B2: Aspergillus oryzae Deuterolysin (Neutral Protease II) (protein)
# chain: TEVTDCKGDAESSLTTALSNAAKLANQAAEAAESGDESKFEEYFKTTDQQTRTTVAERLRAVAKEAGSTSGGSTTYHCNDPYGYCEPNVLAYTLPSKNEIANCDIYYSELPPLAQKCHAQDQATTTLHEFTHAPGVYQPGTEDLGYGYDAATQLSAQDALNNADSYALYANAIELKC
# B3: Aspergillus oryzae 26 kDa protease (protein)
# chain: HASADAWASSKAISSTSSPSSFKMRFISVSSLLLALAPALNAVPVEVAGSAQGLDVTLSQVGNTRIKAWKNTGSEDVTFVHLNFFKDAAPVQKVSLFRNATEVQFQGIKQRLITEGLSDDALTTLAPGATIEDEFDIASTSDLSEGGTITINSNGLVPITTDNKVTGYIPFTSNELSIDVDAAEAASVTQAVKILERRTKVTSCSGSRLSALQTALRNTVSLARAAATAAQSGSSSRFQEYFKTTSSSTRSTVAARLNAVANEAASTSSGSTTYYCSDVYGYCSSNVLAYTLPSYNIIANCDLYYSYLPALTSTCHAQDQATTTLHEFTHAPGVYSPGTDDLGYGYSAATALSASQALLNADTYALFANAVNLNC
# Tests used:
# [1] = molecular target: Protamine sulfate from salmon
# [2] = molecular target: T1, human recombinant IFN-γ, P01579
# T1 chain: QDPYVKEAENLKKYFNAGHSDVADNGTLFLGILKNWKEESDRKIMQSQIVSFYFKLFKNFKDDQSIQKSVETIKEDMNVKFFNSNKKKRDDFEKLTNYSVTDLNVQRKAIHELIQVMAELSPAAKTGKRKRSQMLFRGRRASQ
# [3] = molecular target: T2, mouse recombinant TNF-α, P06804
# T2 chain: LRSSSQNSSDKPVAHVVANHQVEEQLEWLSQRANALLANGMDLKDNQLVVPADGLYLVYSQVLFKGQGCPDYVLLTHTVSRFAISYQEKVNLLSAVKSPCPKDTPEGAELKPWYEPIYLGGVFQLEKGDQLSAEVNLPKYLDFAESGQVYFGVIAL
# [4] = molecular target: human recombinant TNF-α, P01375
# [5] = molecular target: T3, mouse recombinant IFN-γ, P01580
# T3 chain: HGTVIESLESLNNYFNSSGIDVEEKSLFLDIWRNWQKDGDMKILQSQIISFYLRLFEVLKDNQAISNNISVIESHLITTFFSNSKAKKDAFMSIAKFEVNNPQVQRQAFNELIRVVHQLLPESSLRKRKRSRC
# D-val-leu-lys-pNA = molecular target: T4, D-val-leu-lys-pNA
# T4 chain: VLK
# Sequence of human recombinant TNF-α, P01375 (P01375 77-233): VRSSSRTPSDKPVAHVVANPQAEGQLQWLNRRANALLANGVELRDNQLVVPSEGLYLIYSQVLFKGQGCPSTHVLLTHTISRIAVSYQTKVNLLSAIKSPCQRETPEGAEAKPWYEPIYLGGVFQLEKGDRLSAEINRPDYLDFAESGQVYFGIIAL
Protein,Specific activity: Salmon protamine (nmoles Leucine/30 min./µg protein) (nmoles Leucine/30 min./µg protein) [1],cleavage by Western blot [2],cleavage by Western blotting [3],proteolysis by Western blotting [4],cleavage by Western blotting [5],Specific activity: Val-leu-lys-pNA (mOD/min/µg protein) (mOD/min/µg protein) (D-val-leu-lys-pNA)
B1,951,the protease did not cleave human IFN-γ,evidenced the same substrate specificity,produced a similar pattern of cleavage,evidenced the same substrate specificity,117
B2,677,cleave human IFN-γ,,deuterolysin was without significant effect,,2.3
B3,679,cleave human IFN-γ,,,,2.1
